Legend:
[1] = target: T1, Eotaxin 3 (Homo sapiens, UniProt Q9Y258); test: Micro-array analysis of chemokine binding peptides: Eotaxin 3
T1 construct: purchased 300-48
T1 sequence (Q9Y258 24-94): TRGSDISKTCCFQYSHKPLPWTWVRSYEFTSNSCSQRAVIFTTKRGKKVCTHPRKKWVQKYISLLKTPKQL
Procedure: (§1) (1) Printing: Chemokine (CK) solution (in water) was serially diluted with Print Reagent (GenTel BioSurfaces USA) to final concentrations of 50 μg and 25 μg/ml. BSA/BSA-Biotin control solutions (in water) were diluted with Print Reagent to 100 μg/ml. Amplified stock of M13 phage control (M13KEgIII Cloning Vector, New England Biolabs, Cat.No.E8101S) was stored in Tris Buffered Saline (TBS; pH7.5, 4° C.) and diluted with Print Reagent to the working titre (10^8 pfu/μl). An automated spotting robot (16 pin print tool, 0.4 mm head; BioRobotics, UK) was used to print the CK/BSA control/M13 control, 5 repeats per sample (CK 25 μg/ml and 50 μg/ml; BSA 100 μg/ml; M13 20 μl), on PATH Protein Microarray Slides (GenTel, Prod.No. 2-1005/-1025) at […], and 50-70% relative humidity. Printed micro-array slides were stored at Room Temperature (RT) or 4° C. for at least 24 h before use.
(§2) (2) Blocking: Block Buffer (500 μl/partition; PATHblock, GenTel, Prod.No. 2-1014) was applied to the slide for 1 hour at room temp (RT). After removal of Block Buffer, the slide was air dried for 25 minutes;
(§3) (3) Phage Presented Peptide Binding: Amplified recombinant phage stock was stored in TBS and diluted with Wash Buffer to working titer (10^7 pfu/μl). Recombinant phage suspension (300 μl) was applied per partition and incubated at RT for 1 hour with gentle agitation.
(§4) (4) First Washing: The slides were washed twice with Wash Buffer 300 μl/partition).
(§5) (5) Primary Antibody (Ab) Labeling: The slides were incubated with the Primary Ab (1 mg/ml diluted ×2500 (Wash Reagent), 300 μl; Mouse Anti-M13 monoclonal Ab; Amersham Biosciences, UK; Product Code 27-9420-01) for 45 minutes at RT.
(§6) (6) Second Washing: The slides were washed twice with Wash Buffer (300 μl/partition).
(§7) (7) Secondary Ab Labeling: The slides were incubated with Secondary Ab (1.5 mg/ml diluted ×5000 (Wash Reagent), 300 μl; Cy3-conjugated AffiniPure Goat Anti-Mouse IgG; Jackson ImmunoReserch Labs, USA; Product Code 115-165-062).
(§8) (8) Third Washing: The slides were washed twice with Wash Buffer (300 μl/partition).
(§9) (9) Rinse: the slides were rinsed twice with Rinse Buffer (PATHrinse, GenTel, Prod.No. 2-1018) then dried well.
(§10) (10) Scanning: The peptide-bound, labeled slide was scanned (Laser Intensity 80%, Gain 80%, Resolution 10 μm) with a ScanArray Life Scanner (Packard BioChip Technologies, USA).
(§11) (11) Analysis: Quantitative analysis of micro-array was performed by the SpotReader program of Niles Scientific (USA) and presented as Relative Fluorescence (RF) as a function of CK concentration. Micro-array readout (Cy3 fluorescence) was quantified to determine the relative binding affinities of a CBP for the CKs and by inference, the specificity of the CBP for binding to a CK.

[2] = target: T2, I-TAC (Homo sapiens, UniProt O14625); test: Micro-array analysis of chemokine binding peptides: I-TAC
T2 construct: purchased 300-46
T2 sequence (O14625 22-94): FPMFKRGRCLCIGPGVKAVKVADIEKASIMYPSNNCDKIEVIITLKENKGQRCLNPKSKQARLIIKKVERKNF
Procedure: as §1, §2, §3, §4, §5, §6, §7, §8, §9, §10, §11

[3] = target: T3, MCP-2 (Homo sapiens, UniProt P80075); test: Micro-array analysis of chemokine binding peptides: MCP-2; details: limit = start of the upper 75% of that peptide's response range
T3 construct: purchased 300-15
T3 sequence (P80075 24-99): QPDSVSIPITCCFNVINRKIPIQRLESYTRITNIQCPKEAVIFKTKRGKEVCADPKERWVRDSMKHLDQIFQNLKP
Procedure: as §1, §2, §3, §4, §5, §6, §7, §8, §9, §10, §11

[4] = target: T4, MCP-4 (Homo sapiens, UniProt Q99616); test: Micro-array analysis of chemokine binding peptides: MCP-4; details: limit = start of the upper 75% of that peptide's response range
T4 construct: purchased 300-24
Procedure: as §1, §2, §3, §4, §5, §6, §7, §8, §9, §10, §11

[5] = target: T5, Eotaxin (Homo sapiens, UniProt P51671); test: Micro-array analysis of chemokine binding peptides: Eotaxin
T5 construct: purchased 300-21
Procedure: as §1, §2, §3, §4, §5, §6, §7, §8, §9, §10, §11

[6] = target: T6, Mig (Homo sapiens, UniProt Q07325); test: Micro-array analysis of chemokine binding peptides: Mig
T6 construct: purchased 300-26
T6 sequence (Q07325 23-125): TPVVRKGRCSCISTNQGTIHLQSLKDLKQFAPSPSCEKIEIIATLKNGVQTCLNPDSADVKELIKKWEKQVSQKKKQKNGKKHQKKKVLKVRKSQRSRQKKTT
Procedure: as §1, §2, §3, §4, §5, §6, §7, §8, §9, §10, §11

[7] = target: T7, SDF1-β (Homo sapiens, UniProt P48061); test: Micro-array analysis of chemokine binding peptides: SDF1-β
T7 construct: purchased 300-28b
Procedure: as §1, §2, §3, §4, §5, §6, §7, §8, §9, §10, §11

[8] = target: T8, I-309 (Homo sapiens, UniProt P22362); test: Micro-array analysis of chemokine binding peptides: I-309
T8 construct: purchased 300-37
T8 sequence (P22362 24-96): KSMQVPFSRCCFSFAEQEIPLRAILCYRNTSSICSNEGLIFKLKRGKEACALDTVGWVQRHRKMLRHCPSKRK
Procedure: as §1, §2, §3, §4, §5, §6, §7, §8, §9, §10, §11

[9] = target: T9, IP-10 (Homo sapiens, UniProt P02778); test: Micro-array analysis of chemokine binding peptides: IP-10
T9 construct: purchased 300-12
T9 sequence (P02778 22-98): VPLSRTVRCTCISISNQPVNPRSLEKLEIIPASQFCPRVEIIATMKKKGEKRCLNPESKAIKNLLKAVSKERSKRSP
Procedure: as §1, §2, §3, §4, §5, §6, §7, §8, §9, §10, §11

[10] = target: T10, BCA-1 (Homo sapiens, UniProt O43927); test: Micro-array analysis of chemokine binding peptides: BCA-1
T10 construct: purchased 300-47
T10 sequence (O43927 23-109): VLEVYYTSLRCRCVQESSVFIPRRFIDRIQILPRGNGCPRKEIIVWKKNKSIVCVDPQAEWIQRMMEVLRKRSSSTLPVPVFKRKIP
Procedure: as §1, §2, §3, §4, §5, §6, §7, §8, §9, §10, §11

[11] = target: T11, Lymphotactin (Homo sapiens, UniProt P47992); test: Micro-array analysis of chemokine binding peptides: Lymphotactin
T11 construct: purchased 300-20
T11 sequence (P47992 22-114): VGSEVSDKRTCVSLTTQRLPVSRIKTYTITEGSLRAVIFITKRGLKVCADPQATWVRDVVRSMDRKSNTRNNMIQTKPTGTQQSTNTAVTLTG
Procedure: as §1, §2, §3, §4, §5, §6, §7, §8, §9, §10, §11

[12] = target: T12, TECK (Homo sapiens, UniProt O15444); test: Micro-array analysis of chemokine binding peptides: TECK
T12 construct: purchased 300-45
T12 sequence (O15444 24-150): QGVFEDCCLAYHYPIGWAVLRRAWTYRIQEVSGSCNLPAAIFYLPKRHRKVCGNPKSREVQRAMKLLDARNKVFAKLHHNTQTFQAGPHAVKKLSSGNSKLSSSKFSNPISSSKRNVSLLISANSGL
Procedure: as §1, §2, §3, §4, §5, §6, §7, §8, §9, §10, §11

[13] = tested on: Adjuvant-Induced Arthritis (AIA) rats; test: Adjuvant Induced Arthritis (AIA) rat model, Clinical Score; assay type: in vivo; details: 25 μg IP on days 7-18
Procedure: Peptides were tested in a rat model of AIA for their anti-inflammatory effects.
Disease Induction: AIA was induced in female Lewis rats aged 7-8 weeks by injection of heat-killed Mycobacerioum tuberculosis (Mt strain H37Ra, Difco Laboratories, USA) dispersed in incomplete Freund's adjuvant to a final concentration of 10 mg/ml (100 μl) at the base of the tail on day 0.
Measurement: Clinical Score (CS, 0-4) for each limb based on (a) joint inflammation, (b) redness, (c) deformity.
Efficacy Protocol 1 (5 rats per group). Peptide/control compound was injected intra-peritoneally (IP, 200 μl) on days 7-11 and 14-18.
Rats were sacrificed (CO2 inhalation) on day 43.
Efficacy Protocol 2 (8 rats per group). Group 1: peptide/PBS was injected intra-peritoneally (IP, 200 μl) on days 7-18; Group 2: PBS was injected IP on days 7-18; Group 3: Dexamethasone (Dexa) was injected IP on days 11 (Clinical Score (CS)1) and 13. Rats were sacrificed on day 43.
Combination Efficacy Protocol 1 (8 rats per group). Group 1: peptide injected IP on days 7-18; Group 2: PBS injected IP on days 7-18; Group 3: Dexa injected IP on day 11 (CS 1) and day 13; Group 4: Dexa injected IP on days 11 and 13 then peptide injected on days 14-22; Group 5: Dexa injected IP on days 11 and 13 then PBS injected on days 14-22.
Combination Efficacy Protocol 2 (8 rats per group). Group 1: peptide injected IP on days 7-18; Group 2: PBS injected IP on days 7-18; Group 3: Dexa injected IP on day 11 (CS 1) and day 13 then PBS on days 14-22; Group 4: PBS injected IP on days 7-10,12,14; Dexa injected on days 11, 13. Peptide injected on days 15-19.
Combination Efficacy Protocol 3 (8 rats per group). Group 1: peptide injected IP on days 7-18; Group 2: PBS injected IP on days 7-18; Group 3: Dexa injected IP on day 11 (CS 1) and day 13 then PBS on days 14-22; Group 4: peptide injected IP on days 7-10,12,14; Dexa injected on days 11, 13. Peptide injected on days 15-19.
Control Reagents for Adjuvant Induced Arthritis: Anti-Inflammatory Control: Dexamethasone Sodium Phosphate (Dexacort Forte, Teva) was dissolved in Phosphate Buffer Saline (PBS, GIBCO) to a final concentration of 1 mg/ml and injected in 200 μl (200 μg).
Negative Control: Phosphate Buffer Saline (PBS).

[14] = limit = start of the upper 75% of that peptide's response range

T5 sequence (P51671 24-97): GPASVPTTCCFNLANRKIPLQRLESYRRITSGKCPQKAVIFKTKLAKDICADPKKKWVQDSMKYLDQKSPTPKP
T4 sequence (Q99616 17-98): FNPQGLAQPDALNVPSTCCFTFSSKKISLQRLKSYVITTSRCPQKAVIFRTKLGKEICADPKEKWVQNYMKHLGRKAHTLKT
T7 sequence (P48061 22-93): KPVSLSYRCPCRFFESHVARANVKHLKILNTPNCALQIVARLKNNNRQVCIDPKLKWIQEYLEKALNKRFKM

Q: With WVFGNAACK [Ph-p8.7] as the substance, how does the “binding to Eotaxin 3, stated in words” value [1] read?
A: bound

Q: And the “binding to I-TAC, stated in words” value [2]?
A: bound

Q: What about the “binding to MCP-2 with relatively high affinity (Relative Fluorescence Units)” value [3] of the same substance?
A: > 15,000 RFU

Q: What about the “binding to MCP-4 with relatively high affinity (Relative Fluorescence Units)” value [4] of the same substance?
A: > 15,000 RFU

Q: And the “binding to Eotaxin, stated in words” value [5]?
A: bound

Q: And the “binding to Mig, stated in words” value [6]?
A: bound

Q: What about the “binding to SDF1-β, stated in words” value [7] of the same substance?
A: bound

Q: And the “binding to I-309, stated in words” value [8]?
A: bound

Q: And the “binding to IP-10, stated in words” value [9]?
A: bound

Q: And the “binding to BCA-1, stated in words” value [10]?
A: bound

Q: And the “binding to Lymphotactin, stated in words” value [11]?
A: bound

Q: What about the “binding to TECK, stated in words” value [12] of the same substance?
A: bound

Q: For WVFGNMICK [P8 Rat], which maximal anti-inflammatory effect [13] is on record?
A: 40%

Q: Which “binding to Eotaxin 3 with relatively high affinity (Relative Fluorescence Units)” value [1, 14] does the source give for “GNAMCK (listed as Homo sapiens) [Ph-p8.1]” here?
A: > 15,000 RFU

Q: And the “binding to BCA-1 with relatively high affinity (Relative Fluorescence Units)” value [10, 14]?
A: > 15,000 RFU

Q: What about the “binding to Lymphotactin with relatively high affinity (Relative Fluorescence Units)” value [11, 14] of the same substance?
A: > 15,000 RFU

Q: What about the “binding to TECK with relatively high affinity (Relative Fluorescence Units)” value [12, 14] of the same substance?
A: > 15,000 RFU

Source: patent publication US12072338B2, “Pharmaceutical peptides for the treatment of inflammatory diseases” (PROTAGONISTS LTD., priority 2007, dated 2024)
